The source of these data is article PMC3835959 (Cell reports, 2013).

Sequences and labels used below:
B1: EscN ATPase, full-length, hexameric (enzyme)
chain: MISEHDSVLEKYPRIQKVLNSTVPALSLNSSTRYEGKIINIGGTIIKARLPKARIGAFYKIEPSQRLAEVIAIDEDEVFLLPFEHVSGMYCGQWLSYQGDEFKIRVGDALLGRLIDGIGRPMESNIVAPYLPFERSLYAEPPDPLLRQVIDQPFILGVRAIDGLLTCGIGQRIGIFAGSGVGKSTLLGMICNGASADIIVLALIGERGREVNEFLALLPQSTLSKCVLVVTTSDRPALERMKAAFTATTIAEYFRDQGKNVLLMMDSVTRYARAARDVGLASGEPDVRGGFPPSVFSSLPKLLERAGPAPKGSITAIYTVLLESDNVNDPIGDEVRSILDGHIVLTRELAEENHFPAIDIGLSASRVMHNVVTSEHLRAAAECKKLIATYKNVELLIRIGEYTMGQDPEADKAIKNRKLIQNFIQQSTKDISSYEKTIESLFKVVA
B2: CesAB–EspA heterodimeric chaperone–substrate complex (complex)
chain 1: MSIVSQTRNKELLDKKIRSEIEAIKKIIAEFDVVKESVNELSEKAKTDPQAAEKLNKLIEGYTYGEERKLYDSALSKIEKLIETLSPARSKSQSTMNQRNRNNRKIV
chain 2: MDTSTTASVASANASTSTSMAYDLGSMSKDDVIDLFNKLGVFQAAILMFAYMYQAQSDLSIAKFADMNEASKESTTAQKMANLVDAKIADVQSSSDKNAKAQLPDEVISYINDPRNDITISGIDNINAQLGAGDLQTVKAAISAKANNLTTTVNNSQLEIQQMSNTLNLLTSARSDMQSLQYRTISGISLGK
B3: CesAB^Y64A/R68A–EspA complex (complex)
chain 1: B2 chain 1 with Y64A, R68A
chain 2: B2 chain 2

Changes are numbered by the printed parent chain. In names and notes the source's numbering stands.

Data set [1] concerns the molecule itself.
Data set [2] concerns the target B1. In words: NMR titration.

B1: the “stoichiometry N” value in data set [1] amounted to 6.

Turning to B2, in data set [2], the Kd was ~3000 nM.

Turning to B3, the Kd in data set [2] was > 80000 nM.
